± gives the standard deviation of the averaged measurements.
tested on: Saccharomyces cerevisiae; experiment: protein stability index of tFT-peptide fusion (C-terminal peptide) (PSI (0-1 scale)); higher = more stable (slower turnover); conditions: genetic background: wild type; temperature: 30 C
Experimental: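 Multiplexed protein stability (MPS) profiling in S. cerevisiae. Random 12-aa peptides (tFT-X12 library) are fused to the C-terminus of a sfGFP-mCherry tandem fluorescent timer, after mCherry and a GGGS linker. Cells are FACS-sorted into 8 mCherry/sfGFP bins and deep-sequenced. The protein stability index (PSI) is the read-weighted bin average, scaled from 0 (unstable) to 1 (stable). Only peptides with >10 reads are reported; cells were grown at 30 °C in SC-His with glucose.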
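Also: PSI is a weighted mean of sequencing reads over stability bins, variants kept only with over 10 reads, mCherry proximal and sfGFP distal, peptide attached via GGGS linker.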

Row | Sequence | protein stability index
1 | GLSSAVSPSFGR | 0.598 ± 0.017
2 | GLSSFIGRRGRR | 0.713 ± 0.013
3 | GLSSRQHPAPTT | 0.693 ± 0.05
4 | GLSWSSGGLMVF | 0.615 ± 0.037
5 | GLSYPPLQFYYH | 0.689 ± 0.012
6 | GLVGCDPPPPAF | 0.72 ± 0.04
7 | GLVGSGFVCIGM | 0.697 ± 0.15
8 | GLVRGGWGTVGG | 0.805 ± 0.24
9 | GLVVGGLRPKRV | 0.68 ± 0.004
10 | GLWEVVEITRRE | 0.684 ± 0.049
11 | GMDGWGWGGSVV | 0.706 ± 0.026
12 | GMGWGTVGDING | 0.709 ± 0.024
13 | GMIRDKEVVGGG | 0.651 ± 0.11
14 | GMQPRGVRRATS | 0.728 ± 0.023
15 | GMRGGKGKPAET | 0.728 ± 0.0096
16 | GMSSWNSISFPI | 0.751 ± 0.073
17 | GNNPDHAYTSNI | 0.682 ± 0.07
18 | GNRARRSGITRF | 0.809 ± 0.15
19 | GNTNIYIVMRES | 0.5935 ± 0.0031
20 | GNTPERVQRRWE | 0.632 ± 0.086
21 | GPCFKSQPKSPI | 0.6807 ± 0.0024
22 | GPCRICNERSLI | 0.613 ± 0.0062
23 | GPCSLVSLFAGD | 0.697 ± 0.017
24 | GPEGSDMIDPWK | 0.666 ± 0.13
25 | GPEVRPTLTHNE | 0.623 ± 0.018

Row | Sequence | protein stability index
26 | GPGPRAASADCP | 0.728 ± 0.08
27 | GPLPPLHPSPTI | 0.725 ± 0.016
28 | GPPDLSSSRVLL | 0.718 ± 0.11
29 | GPPPPPPLPQLW | 0.77 ± 0.037
30 | GPPRTRRRSARG | 0.668 ± 0.0068
31 | GPPSVSPPFSPS | 0.7829 ± 0.0016
32 | GPRAGFRRPELE | 0.733 ± 0.043
33 | GPRVILALLSRR | 0.6842 ± 0.0067
34 | GPSHPPHLPPPV | 0.6855 ± 0.001
35 | GPSIRWWGGGRR | 0.731 ± 0.049
36 | GPSPFHPPPPER | 0.554 ± 0.0094
37 | GPSVGWFPSGWS | 0.74212 ± 0.00021
38 | GPVTSFAPVAVS | 0.617 ± 0.038
39 | GPVVGGWSVVSK | 0.655 ± 0.058
40 | GPYDLVSAPCLG | 0.753 ± 0.057
41 | GQAPRARKTSTD | 0.678 ± 0.014
42 | GQAWVEITARDS | 0.748 ± 0.075
43 | GQGRGERRRVRP | 0.653 ± 0.075
44 | GQGSSRKSTSVK | 0.7114 ± 0.0041
45 | GQHSCTRVDTQQ | 0.734 ± 0.011
46 | GQLMRPSFSVSC | 0.658 ± 0.009
47 | GQSRQKNEKKIK | 0.687 ± 0.0091
48 | GQSSVGCYNYRR | 0.676 ± 0.036
49 | GRAGLDLACWWK | 0.709 ± 0.03
50 | GRARWVGGEGVW | 0.706 ± 0.025

Row | Sequence | protein stability index
51 | GRCGRFVGAAWG | 0.741 ± 0.17
52 | GRCLRITMACYI | 0.646 ± 0.035
53 | GREGAADGWACG | 0.652 ± 0.055
54 | GREREKGGKRIE | 0.629 ± 0.047
55 | GRFRQTVTGEGW | 0.669 ± 0.087
56 | GRGAGQAGKKKI | 0.631 ± 0.0073
57 | GRGCLGSILVFL | 0.633 ± 0.047
58 | GRGEKKREVDGG | 0.69 ± 0.065
59 | GRGGGGGAVGEW | 0.683 ± 0.037
60 | GRGGWPPWFKHK | 0.712 ± 0.033
61 | GRGLGGWARGWW | 0.69008 ± 0.00035
62 | GRGPRTTKAGRG | 0.7 ± 0.03
63 | GRGRVAAGFVAR | 0.737 ± 0.039
64 | GRGTLLGLGLYA | 0.692 ± 0.078
65 | GRGVGACLVVVV | 0.523 ± 0.022
66 | GRGVGCVRRVGG | 0.676 ± 0.059
67 | GRGWGGALGWCG | 0.668 ± 0.013
68 | GRIFAGCGGGGV | 0.705 ± 0.06
69 | GRKKRGRKGEEK | 0.631 ± 0.035
70 | GRKPGGGRRAPE | 0.666 ± 0.028
71 | GRLFCAALPLPL | 0.666 ± 0.089
72 | GRLGSSRIVGKS | 0.692 ± 0.017
73 | GRLQRKQRKYKA | 0.719 ± 0.0083
74 | GRPGISESGIIG | 0.7103 ± 0.0071
75 | GRPTRRHRGRLV | 0.709 ± 0.028

Row | Sequence | protein stability index
76 | GRQEISVGGRRM | 0.7007 ± 0.00071
77 | GRRDGRWGQIVR | 0.679 ± 0.0097
78 | GRRRVGAVVEGV | 0.641 ± 0.01
79 | GRRVQRGQARGA | 0.66 ± 0.024
80 | GRRWVGAVVEGV | 0.684 ± 0.043
81 | GRSASDTRGLGL | 0.672 ± 0.13
82 | GRSDAPVPFDPP | 0.561 ± 0.0098
83 | GRSGWAWFTCRC | 0.67 ± 0.059
84 | GRTGETGRIGRG | 0.6512 ± 0.0023
85 | GRTWCFVGARPS | 0.698 ± 0.17
86 | GRVRETRCISYG | 0.652 ± 0.11
87 | GRVRIFDCVVRL | 0.753 ± 0.011
88 | GRVRLGMKETLS | 0.713 ± 0.016
89 | GRVSAVEFWFCF | 0.615 ± 0.04
90 | GRWGGWGGRGCG | 0.696 ± 0.023
91 | GRYRNDVAVLNF | 0.683 ± 0.087
92 | GSAHSFTLLVLP | 0.742 ± 0.043
93 | GSDMRADGRIER | 0.673 ± 0.039
94 | GSEPCPRPCGPG | 0.692 ± 0.048
95 | GSFLGTSFKSEY | 0.666 ± 0.029
96 | GSFMECIREGIF | 0.718 ± 0.058
97 | GSGAICAFGFWC | 0.6599 ± 0.0041
98 | GSGDFWRLCISL | 0.785 ± 0.1
99 | GSGRRGLMGRKS | 0.728 ± 0.011
100 | GSGVVCTMGWRL | 0.6856 ± 0.0068

Row | Sequence | protein stability index
101 | GSHRSTWGLVPL | 0.696 ± 0.067
102 | GSLCAVWWCWRG | 0.6372 ± 0.0052
103 | GSLRLASAHGLV | 0.729 ± 0.02
104 | GSPMRKHVTLLP | 0.808 ± 0.12
105 | GSPPHTLPLHGR | 0.67 ± 0.03
106 | GSRCSEAQDRSD | 0.713 ± 0.015
107 | GSRFCPHVGICI | 0.657 ± 0.019
108 | GSSPLLFSLLES | 0.751 ± 0.076
109 | GSSRMACYCKHS | 0.644 ± 0.051
110 | GSSSSLDVFVVF | 0.699 ± 0.085
111 | GSTLGGMAWGAR | 0.682 ± 0.014
112 | GSTLWGMAWGAR | 0.694 ± 0.017
113 | GSTRWGSAEGRG | 0.662 ± 0.21
114 | GSVCCLSLHCFV | 0.62 ± 0.033
115 | GSYIPSPKKNKC | 0.7086 ± 0.0029
116 | GSYRSSPFKDPK | 0.686 ± 0.037
117 | GTDEWKRKYNTP | 0.695 ± 0.045
118 | GTDSFQTTRRLI | 0.663 ± 0.022
119 | GTGPPPSPPSLP | 0.683 ± 0.091
120 | GTHFRPAREERV | 0.708 ± 0.039
121 | GTHGQAQRVAGQ | 0.7248 ± 0.0061
122 | GTIEFNKIEDFW | 0.715 ± 0.039
123 | GTLAAGGGVPMS | 0.734 ± 0.034
124 | GTLARFLTHFNP | 0.666 ± 0.048
125 | GTLRLLYLKTSK | 0.651 ± 0.009

Row | Sequence | protein stability index
126 | GTLSLAACLSEN | 0.657 ± 0.077
127 | GTRAVSKLNPDA | 0.701 ± 0.02
128 | GTRRHSFCSGTG | 0.703 ± 0.054
129 | GTSERKVLNRKR | 0.764 ± 0.015
130 | GTSVGVRRKGVK | 0.708 ± 0.033
131 | GTTLDEPGESGR | 0.621 ± 0.023
132 | GVAAGPAVRVLT | 0.669 ± 0.032
133 | GVAGGLLLRGGR | 0.673 ± 0.13
134 | GVAYSIVKKKKK | 0.684 ± 0.036
135 | GVCTGSFVFYLT | 0.686 ± 0.016
136 | GVEAGMGRTLWL | 0.792 ± 0.099
137 | GVEGAVGGRRGA | 0.703 ± 0.029
138 | GVEGLGAFVTVQ | 0.702 ± 0.0089
139 | GVENAHLFYLYL | 0.63579 ± 0.00058
140 | GVEVCEGDGPLK | 0.669 ± 0.015
141 | GVGGGSSWVGYG | 0.912 ± 0.063
142 | GVGGGVRLVVSR | 0.633 ± 0.052
143 | GVGGRVRDALGM | 0.68 ± 0.066
144 | GVGLIGVLTCGL | 0.636 ± 0.02
145 | GVGLVLLGVVSG | 0.513 ± 0.025
146 | GVGRGCVLNGGG | 0.743 ± 0.018
147 | GVGVWQWERGRG | 0.789 ± 0.1
148 | GVICALPPVVGR | 0.685 ± 0.071
149 | GVLGCNDGSVVE | 0.663 ± 0.059
150 | GVLRPVWVLGGS | 0.624 ± 0.017

Row | Sequence | protein stability index
151 | GVLSLFLLDTSQ | 0.7376 ± 0.0061
152 | GVLVESGSVESR | 0.744 ± 0.12
153 | GVPALLVGIDLV | 0.668 ± 0.027
154 | GVPFSLGPPPSR | 0.669 ± 0.022
155 | GVPVVCGPPPFL | 0.748 ± 0.091
156 | GVQEGGGGARGG | 0.633 ± 0.023
157 | GVRAPPSPVSGL | 0.6711 ± 0.0066
158 | GVRGGGAVGGLR | 0.65 ± 0.056
159 | GVRHPRLMFSRS | 0.687 ± 0.02
160 | GVRIGYCIVRDV | 0.647 ± 0.022
161 | GVRIVRRGLRRV | 0.731 ± 0.013
162 | GVRKGEESGVGW | 0.717 ± 0.0085
163 | GVSAGGAGLGGS | 0.773 ± 0.0031
164 | GVSAGLRGGGGA | 0.651 ± 0.022
165 | GVSHKKGCPWLG | 0.641 ± 0.043
166 | GVSKALAAAVDA | 0.6874 ± 0.0061
167 | GVSVSPVVHFFL | 0.73 ± 0.062
168 | GVSWVGGRVFGG | 0.6964 ± 0.0051
169 | GVVGGGVQGGMG | 0.624 ± 0.0046
170 | GVVRTSWGEALR | 0.7065 ± 0.0061
171 | GVVRWGRVVGCF | 0.631 ± 0.084
172 | GVWQGVGVRGWG | 0.83 ± 0.096
173 | GWCALGVRAILY | 0.651 ± 0.0097
174 | GWCRVFLNFLMW | 0.61142 ± 0.00012
175 | GWCVGHSVLVVE | 0.618 ± 0.021

Row | Sequence | protein stability index
176 | GWGCARRRGGRV | 0.683 ± 0.015
177 | GWGGEGQNGSEG | 0.638 ± 0.019
178 | GWGGFQFECGWV | 0.651 ± 0.059
179 | GWGGGSMDLRDR | 0.702 ± 0.011
180 | GWGGSIGEEWGG | 0.687 ± 0.022
181 | GWGPWGRVGRGG | 0.688 ± 0.032
182 | GWLGGGGVVWWG | 0.718 ± 0.017
183 | GWMLGAVRRGVI | 0.694 ± 0.032
184 | GWMSGTPEFLGS | 0.707 ± 0.025
185 | GWPVSICGSTQN | 0.754 ± 0.058
186 | GWQLWGFCLSGP | 0.637 ± 0.032
187 | GWRGGGSDGGLR | 0.718 ± 0.086
188 | GWSCRGVGGGLG | 0.708 ± 0.045
189 | GWVGGCGCGRGI | 0.694 ± 0.034
190 | GWVRCGGGAGVG | 0.622 ± 0.056
191 | GWVWILGRGRGR | 0.637 ± 0.044
192 | GWWGGCRSGVPE | 0.672 ± 0.069
193 | GYADDEEEYVTL | 0.737 ± 0.023
194 | GYETTQSGFLSS | 0.5887 ± 0.0022
195 | GYLVPLPSSGSS | 0.661 ± 0.057
196 | GYNTSMHVQYQT | 0.764 ± 0.02

From the supplement of paper PMC10724198
